Measurements as given in the RNAGym collection of RNA variant scans (doi:10.7554/elife.80360).

B1: HDV Ribozyme (parent)
chain: GGCCGGCAUGGUCCCAGCCUCCUCGCUGGCGCCGGCUGGGCAACAUUCCGAGGGGACCGUCCCCUCGGUAAUGGCGAAUGGGACCCA
B2: CPEB3 Ribozyme (parent)
chain: GGGGGCCACAGCAGAAGCGUUCACGUCGCGGCCCCUGUCAGAUUCUGGUGAAUCUGCGAAUUCUGCUGU

Variants of: B1
Experiment: self-cleavage, relative activity (ratio to wild type); higher = more cleavage; co-transcriptional

Variant | self-cleavage
A87C | 1.01
A87U | 1.03
A87G | 0.984
C85U A87G | 0.963
C85U A87C | 0.933
C84A C86A | 0.712
A83G C85A | 0.677
A83G C85G | 1.12
A83U A87G | 0.531
A83U A87C | 0.751
A83U A87U | 0.507
C84U A87C | 0.749
C84U A87U | 0.946
A83G A87C | 0.906
C85U C86U | 0.895
C85A A87U | 1.06
C85A A87C | 0.862
C84G | 0.688
C84U | 0.804

Variant | self-cleavage
C84A | 0.895
A83C A87G | 0.302
C84A C85G | 0.519
C84G C85G | 0.26
C86U A87G | 0.942
C86U A87C | 0.926
A83U C85A | 0.237
A83U C85G | 0.208
C84U C85A | 0.877
C84U C85G | 0.923
C84U C85U | 0.604
C86G A87C | 1.04
G82U C86A | 0.793
A83G | 0.806
A83U | 0.523
A83C | 0.458
C84A A87G | 0.61
A83C C86U | 0.376
A83C C86G | 0.254

Variant | self-cleavage
C84G A87U | 0.842
C85G C86U | 0.858
C84U C86G | 0.907
C84U C86U | 0.604
C84G C86A | 0.764
C84G C86U | 0.675
C86A A87G | 0.804
C86A A87C | 0.855
C85G A87G | 0.919
C85A C86U | 1.05
C85A C86G | 0.791
A83C C85A | 0.534
A83C C85U | 0.268
A83C C85G | 0.175
A83G C86G | 0.807
A83G C86A | 0.941
A83G C86U | 1.08
A83G C84A | 1.02
A83G C84G | 0.95

Variants of: B2
Experiment: as above

Variant | self-cleavage
G2A U44G | 0.0958
G2A U44A | 0.111
G2A A60U | 0.0695
G2A A60G | 0.0573
G1A C39A | 0.0683
G1A C39G | 0.0386
G2C A52U | 0.0375
G2C A52G | 0.0291
G2C C9U | 0.0977
G2A U69C | 0.457
G1A A42C | 0.106
G1A A42U | 0.105
G1A G14U | 0.0964
G1A C54U | 0.0835
G2C A13C | 0.0327
G1U C24U | 0.0825
G1U C24A | 0.0939
G1A U21C | 0.0967
G2A U38G | 0.0237
G1A U64C | 0.0762
G2A C39G | 0.0948
G2C A23U | 0.1
G2C A23G | 0.0311
G2A U53C | 0.104
G2A U53A | 0.111
G2A G5U | 0.0444

Variant | self-cleavage
G2C C35U | 0.0408
G1A A60G | 0.0623
G1A A60U | 0.107
G1U G5U | 0.0243
G1U G5A | 0.101
G1C U62C | 0.264
G1A U38G | 0.0274
G1A U38A | 0.0918
G2C C39G | 0.0347
G2C C39A | 0.108
G1U C18A | 0.0311
G1C A16C | 0.161
G1U C12A | 0.0761
G1A G4U | 0.0804
G1A G17C | 0.0672
G2C C54G | 0.0261
G2C A51U | 0.056
G1C C32G | 0.148
G2A U20A | 0.0398
G2A U20C | 0.0328
G1C A60U | 0.179
G1A U53G | 0.0671
G1A U53C | 0.0532
G1A U53A | 0.0419
G1A U55G | 0.0876
G2A G47U | 0.276

Variant | self-cleavage
G1U G19U | 0.0505
G1U G19C | 0.0611
G1U C27U | 0.0539
G1U A15U | 0.0945
G1A U67A | 0.121
G1A U67G | 0.0812
G1C U61A | 0.253
G2A C18G | 0.0324
G2A C18A | 0.0515
G1A C45A | 0.0944
G1C G3C | 0.0906
G1U A52C | 0.112
G2A C63A | 0.104
G1C G30U | 0.162
G2C C7G | 0.0326
G1C U53C | 0.0726
G2A G25A | 0.0813
G1U G2U | 0.392
G2A C7G | 0.063
G1U C63G | 0.111
G2C A42U | 0.0317
G2C A42C | 0.0895
G1C G14C | 0.152
G2A A8C | 0.194
G1C U69C | 0.396
G1C U69G | 0.409

Variant | self-cleavage
G1C U64G | 0.204
G1C U21A | 0.246
G2C C18G | 0.0398
G1U U26A | 0.0674
G1U U26G | 0.0529
G1C U55G | 0.135
G1C C22U | 0.0706
G1U C45A | 0.11
G1U C57A | 0.0933
G2A A40C | 0.0341
G2A A40G | 0.105
G2A A10U | 0.336
G1U A10G | 0.0897
G1U A10C | 0.186
G1A U49C | 0.0571
G1A C66A | 0.0751
G1A C66U | 0.0966
G1A C22G | 0.0704
G1A C22A | 0.0619
G1C G2U | 0.142
G1C G2C | 0.67
G1U U53C | 0.143
G1U U46C | 0.0797
G1A C29A | 0.061
G2A G68U | 0.335
G1C U46A | 0.208

Variant | self-cleavage
G1C U46G | 0.234
G1C C7U | 0.172
G1C G56U | 0.224
G1C U49A | 0.287
G2A G31U | 0.0712
G2A G31C | 0.0358
G2C C12A | 0.0486
G1U A8G | 0.0916
G1A G25U | 0.076
G1A G25A | 0.0488
G2A A16G | 0.179
G2A A16C | 0.0551
G1C G5A | 0.272
G1C G5C | 0.15
G1A C12U | 0.0887
G2A U61A | 0.0537
G2A U61G | 0.0696
G2A C33G | 0.0627
G1C C57U | 0.07
G1U G56A | 0.111
G1C A51G | 0.18
G1A C7A | 0.155
G1A C7U | 0.0863
G1U C9A | 0.181
G1A G31U | 0.0837
G1C A42U | 0.2

Variant | self-cleavage
G1U G58A | 0.0859
G1U A40U | 0.0879
G1U A40G | 0.0819
G2A A15G | 0.166
G1U U20G | 0.0369
G1U U20C | 0.068
G1U C33U | 0.214
G1U C33G | 0.102
G1U G50A | 0.139
G1C C54U | 0.237
G1C C54A | 0.272
G1C U67G | 0.312
G1U G14U | 0.0869
G1A A23G | 0.139
G1A A23C | 0.0884
G1U C34U | 0.147
G1A A51C | 0.114
G1A A51G | 0.0779
G1C G50A | 0.224
G1C G50C | 0.145
G2A C22A | 0.0696
G2A G19C | 0.0616
G1U G47C | 0.0959
G1C C24U | 0.203
G1C C24G | 0.118
G2A A42G | 0.196

Variant | self-cleavage
G1C G65C | 0.174
G1C G65A | 0.134
G1C U26A | 0.165
G1U C35G | 0.0241
G1A U61A | 0.0967
G1A U61G | 0.15
G2C C27U | 0.0172
G1U C66U | 0.127
G2A G41C | 0.0676
G1A G48C | 0.142
G1A C35G | 0.053
G1A G30U | 0.0869
G1U U21A | 0.054
G1A U44G | 0.0722
G1A C27G | 0.0668
G1U G37C | 0.0508
G1U G37U | 0.0468
G2A C32A | 0.0579
G2A C32G | 0.0194
G1A G3U | 0.0455
G1A G3A | 0.107
G1C U20A | 0.0802
G1U C7U | 0.0859
G1C A40U | 0.195
G1A G19A | 0.0657
G1A G19C | 0.0333

Variant | self-cleavage
G1A G19U | 0.0319
G1A G50C | 0.115
G1C G37A | 0.157
G2C C34G | 0.0583
G1A G28A | 0.0534
G2A A23U | 0.284
G1C G48A | 0.204
G1C G48C | 0.215
G1A G58U | 0.0885
G1U U61C | 0.117
G1A G41A | 0.0513
G1U U38A | 0.0964
G1U A16U | 0.103
G1U A16G | 0.108
G2A C54G | 0.0929
G2A G4C | 0.0317
G2A G4U | 0.0384
G2A G4A | 0.0501
G2A G17C | 0.0329
G1C A10U | 0.209
G1C A10C | 0.23
G1C G4U | 0.205
G1C G19U | 0.166
G1C G19C | 0.126
G2C C63A | 0.0459
G2C C63U | 0.0396

Variant | self-cleavage
G2A C34G | 0.03
G1U G25C | 0.0418
G1U G25A | 0.0632
G1U G25U | 0.0227
G1C U44C | 0.232
G2C C24U | 0.0323
G1A A16C | 0.028
G1A A16U | 0.0347
G1U U36A | 0.0485
G1C C29A | 0.168
G1A G37A | 0.0641
G2A C12U | 0.201
G2A C12A | 0.0566
G2A A13U | 0.121
G1C U38A | 0.267
G2C A8G | 0.0226
G1A A8G | 0.0246
G1A A8C | 0.102
G1A U43C | 0.0436
G1A U43G | 0.0723
G1A U43A | 0.0552
G1C G41U | 0.193
G1U U69C | 0.284
G2A U49A | 0.179
G1C A15U | 0.229
G1A C33A | 0.0757

Variant | self-cleavage
G1U C54U | 0.136
G1A A40G | 0.0657
G2C A59G | 0.106
G1C U36G | 0.297
G2A C24U | 0.0737
G2A C24A | 0.0565
G1C G28A | 0.102
G2A G28C | 0.0268
G1U G17C | 0.0433
G1U G17A | 0.0548
G2A A52C | 0.167
G1C C9A | 0.251
G1U G30A | 0.0902
G2C C22G | 0.02
G1A U62G | 0.0371
G1A U62C | 0.033
G1A A10G | 0.115
G1A A10U | 0.0492
G2A G65A | 0.163
G1C C39A | 0.174
G1C C18U | 0.167
G1C C18A | 0.035
G1C C18G | 0.0551
G1U A23G | 0.141
G1U A23C | 0.171
G1U G11C | 0.118

Variant | self-cleavage
G1U G11U | 0.129
G1C A8G | 0.205
G1U C39G | 0.103
G2C C29A | 0.0311
G1U G28U | 0.0723
G1U A60G | 0.128
G1U A60U | 0.033
G1A G11C | 0.0395
G2A C45A | 0.132
G2A C45U | 0.117
G1C C66G | 0.248
G1A G2A | 0.302
G1A G2U | 0.332
G1A G2C | 0.265
G1U A13G | 0.0953
G1U A13C | 0.0972
G1C C63G | 0.201
